Key:
[1] = molecular target: T1, human VEGF165 (human, UniProt P15692-4 27-191); assay: ELISA, relative binding activity; 120 mg/mL formula, 25 C, 3M
T1 construct: all are put under this molecule; also called VEGF A; VEGFA

[2] = molecular target: T2, human Ang2 (human, UniProt O15123 19-496, limits assumed); assay: as above
T2 construct: Bought proteins; also called hAng2-biotin; Ang2-Bio (Sino)
T2 sequence (looked up): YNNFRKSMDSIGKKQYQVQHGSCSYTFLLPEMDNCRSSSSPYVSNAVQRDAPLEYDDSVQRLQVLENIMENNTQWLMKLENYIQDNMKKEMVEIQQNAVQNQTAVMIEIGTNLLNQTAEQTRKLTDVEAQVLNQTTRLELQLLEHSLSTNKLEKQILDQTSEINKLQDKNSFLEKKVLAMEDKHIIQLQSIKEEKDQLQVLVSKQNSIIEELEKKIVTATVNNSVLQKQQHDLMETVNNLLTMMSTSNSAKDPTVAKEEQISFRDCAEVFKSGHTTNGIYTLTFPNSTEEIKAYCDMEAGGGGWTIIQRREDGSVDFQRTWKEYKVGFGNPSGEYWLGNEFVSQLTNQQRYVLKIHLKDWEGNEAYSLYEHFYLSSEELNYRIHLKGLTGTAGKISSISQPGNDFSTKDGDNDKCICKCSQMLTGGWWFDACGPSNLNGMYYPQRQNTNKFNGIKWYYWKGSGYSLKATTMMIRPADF

[3] = molecular target: T1, human VEGF165; assay: ELISA, relative binding activity; 120 mg/mL formula, 40 C, 2W
[4] = molecular target: T2, human Ang2; assay: as above
[5] = molecular target: T1, human VEGF165; assay: ELISA, relative binding activity; final formula 40 mg/mL, 25 C, 1M
[6] = molecular target: T2, human Ang2; assay: as above
[7] = molecular target: T1, human VEGF165; assay: ELISA, relative binding activity; final formula 40 mg/mL, 25 C, 2M
[8] = molecular target: T1, human VEGF165; assay: ELISA, relative binding activity; final formula 40 mg/mL, 40 C, 4W
[9] = molecular target: T2, human Ang2; assay: as above
[10] = molecular target: T1, human VEGF165; assay: ELISA, relative binding activity; final formula 40 mg/mL, 2-8 C, 6M
[11] = molecular target: T2, human Ang2; assay: as above
[12] = molecular target: T1, human VEGF165; assay: ELISA, relative binding activity; final formula 40 mg/mL, 2-8 C, 12M
[13] = molecular target: T2, human Ang2; assay: as above
[14] = molecular target: T1, human VEGF165; assay: ELISA, relative binding activity; IEX04-012 about 40 mg/mL in F5, 40 C, 1 week
[15] = molecular target: T2, human Ang2; assay: as above
[16] = molecular target: T1, human VEGF165; assay: ELISA, relative binding activity; IEX04-012 about 40 mg/mL in F7, 40 C, 1 week
[17] = molecular target: T2, human Ang2; assay: as above
[18] = molecular target: T1, human VEGF165; assay: ELISA, relative binding activity; IEX04-012 about 40 mg/mL in F1, 40 C, 2 weeks
[19] = molecular target: T2, human Ang2; assay: as above
[20] = molecular target: T1, human VEGF165; assay: ELISA, relative binding activity; IEX04-012 about 40 mg/mL in F10, 40 C, 1 week
[21] = molecular target: T2, human Ang2; assay: as above
[22] = molecular target: T1, human VEGF165; assay: ELISA, relative binding activity; IEX04-012 about 40 mg/mL in F2, 40 C, 2 weeks
[23] = molecular target: T2, human Ang2; assay: as above
[24] = molecular target: T1, human VEGF165; assay: ELISA, relative binding activity; IEX04-012 about 40 mg/mL in F6, 40 C, 0 weeks
[25] = molecular target: T2, human Ang2; assay: as above
[26] = molecular target: T1, human VEGF165; assay: ELISA, relative binding activity; IEX04-012 about 40 mg/mL in F6, 40 C, 2 weeks
[27] = molecular target: T2, human Ang2; assay: as above

T1 sequence (P15692 other isoform, or with tags, fused parts or gaps limits assumed): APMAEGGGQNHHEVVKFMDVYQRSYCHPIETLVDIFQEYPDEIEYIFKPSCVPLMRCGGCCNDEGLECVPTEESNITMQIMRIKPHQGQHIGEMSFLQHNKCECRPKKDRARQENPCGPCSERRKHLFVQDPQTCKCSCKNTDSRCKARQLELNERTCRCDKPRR

- Relative binding Activity to VEGF A (ELISA, %) [1]: 106%
- Relative binding Activity to Ang2 (ELISA, %) [2]: 75%
- Relative binding Activity to VEGF A (ELISA, %) [3]: 113%
- Relative binding Activity to Ang2 (ELISA, %) [4]: 81%
- Relative binding Activity to VEGF A (ELISA, %) [5]: 98%
- Relative binding Activity to Ang2 (ELISA, %) [6]: 93%
- Relative binding Activity to VEGF A (ELISA, %) [7]: 102%
- Relative binding Activity to VEGF A (ELISA, %) [8]: 78%
- Relative binding Activity to Ang2 (ELISA, %) [9]: 74%
- Relative binding Activity to VEGF A (ELISA, %) [10]: 99%
- Relative binding Activity to Ang2 (ELISA, %) [11]: 100%
- Relative binding Activity to VEGF A (ELISA, %) [12]: 100%
- Relative binding Activity to Ang2 (ELISA, %) [13]: 96%
- Relative binding Activity to VEGF (ELISA, %) [14]: 98%
- Relative binding Activity to Ang2 (ELISA, %) [15]: 82%
- Relative binding Activity to VEGF (ELISA, %) [16]: 102%
- Relative binding Activity to Ang2 (ELISA, %) [17]: 90%
- Relative binding Activity to VEGF (ELISA, %) [18]: 101%
- Relative binding Activity to Ang2 (ELISA, %) [19]: 100%
- Relative binding Activity to VEGF (ELISA, %) [20]: 99%
- Relative binding Activity to Ang2 (ELISA, %) [21]: 98%
- Relative binding Activity to VEGF (ELISA, %) [22]: 99%
- Relative binding Activity to Ang2 (ELISA, %) [23]: 102%
- Relative binding Activity to VEGF (ELISA, %) [24]: 100%
- Relative binding Activity to Ang2 (ELISA, %) [25]: 100%
- Relative binding Activity to VEGF (ELISA, %) [26]: 99%
- Relative binding Activity to Ang2 (ELISA, %) [27]: 89%
B1: IEX04-012 (bispecific antibody)
chain: DIQLTQSPSSLSASVGDRVTITCSASQDISNYLNWYQQKPGKAPKVLIYFTSSLHSGVPSRFSGSGSGTDFTLTISSLQPEDFATYYCQQYSTVPWTFGCGTKVEIKGGGGSGGGGSGGGGSGGGGSEVQLVESGGGLVQPGGSLRLSCAASGYDFTHYGMNWVRQAPGKCLEWVGWINTYTGEPTYAADFKRRFTFSLDTSKSTAYLQMNSLRAEDTAVYYCAKYPYYYGTSHWYFDVWGQGTLVTVSSGGGGSGGGGSGGGGSEVQLLESGGGLVQPGGSLRLSCAASGFALDYYAIGWFRQAPGKGLEGVSCISSGEGSTYYADSVKGRFTISRDNSKNTVYLQMNSLRAEDTAVYYCATDSRGDDVACEGLRRNEYDYWGQGTLVTVSS
